These results are taken from PMC3575693.

In the test the target is needle protein MxiH (Shigella flexneri) (UniProt P0A223). Nature of the test: co-purification with isolated needles, Western blot. For orientation: Immunoblotting shows a protein as a band on a membrane.
UniProt P0A223, sequence (P0A223 whole entry): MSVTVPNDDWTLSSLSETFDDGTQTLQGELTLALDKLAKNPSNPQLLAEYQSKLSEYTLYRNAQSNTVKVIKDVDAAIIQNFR

IpaB (natural protein) showed a % IpaB in needles relative to the complemented strain, in the ipaDL99P strain of 100% and a % IpaB in needles relative to the complemented strain, in the wild-type strain of 70%.
